Columns and labels:
[1] = biological target: synthetic Aβ1-42 peptide (aggregated in the ELISAs) (human) (UniProt P05067); assay: ELISA on aggregated synthetic Aβ1-42; given as ED50
[2] = biological target: soluble [125I]Aβ1-42 (synthetic Aβ1-42 sonicated in DMSO, radio-iodinated) (human) (UniProt P05067); assay: capture radioimmunoassay, 50,000 CPM of 125I-Aβ1-42 (or 125I-Aβ1-40), antibody at 10 µg/ml

| Substance | EC50 [1] [nM] | % of radioactive counts bound at 10 µg/ml [2] [%] |
| --- | --- | --- |
| antibody 10D5 (IgG1) | 0.053 | 2 |
| antibody 12B4 (IgG2a) | 0.667 | 7 |

Source: patent US20050118651A1
